Patent publication US20250355001A1, “METHOD FOR DETECTING A TAU PROTEIN FRAGMENT IN A SAMPLE” (GTINVENT LIMITED, priority 2022, published 2025)
Residue numbers refer to the chain shown, from its start.

B1: E2B7: dGAE (391E) specific clone, Table 9; SEQ ID NO: 254 (protein)
scFv: QVQLQESGPSLVKPSQTLSLTCTVSGFSLTSWGVAWVRQAPGKALEWLGTMRSGGGTEYNPALKSRLSITRDTSKSQVSLSLSSVTTEDMAMYYCARGYLSGIHYAWGRGLLVSVSSEGKSSGASGESKVDDQAVLTQLSSVSGSLGQRVSITCSGSSSNVGDGDYVGWFQQLPGSAPKLLIYSARNRASGVPDRFSGSRSGNTATLTITSLQAEDEADYYCASIDTSRSHIFGSGTRLTVLG
modifications: E2B7 amino acid sequence
B2: S1D9: anti-tau clone, Table 2; SEQ ID NO: 413 (protein)
scFv: QVQLQESGPSLVKPSQTLSLTCTVSGFSLTSNSVGWVRQAPGKAPEWVAGIDSDGEEGYNPALNSRLSITRDTSKNQVSLSLSRVTSEDTAVYYCGRTYRTDGYAYGYVQAIDYWGPGLLVTVSSEGKSSGASGESKVDDRVMLTQPPSVSGSPGQTVSITCSGSFIGISSVGWFQQLPGSGLRTVIFASDGRPSGVPDRFSNSKSGNTATLTISSLQAEDEADYFCGSSDRTQYTGVFGSGTRLTVLS
modifications: S1D9 amino acid sequence
B3: S1F4: anti-tau clone, Table 2; SEQ ID NO: 414 (protein)
scFv: QVQLQESGPSLVKPSQTLSLTCTVSGFSLSSNSVGWVRQAPGKAPEWVAGIDTDGEEGYNPALNSRLSITRDTSKSQVSLSLSSVTSEDTAVYYCVRSYRADGLAYGYVQAIDYWGPGLLLTISSEGKSSGASGESKVDDQAVVTQPSSVSGSLGQRVSITCSGSFIGISSVGWFQQLPGSGLRTVIVASDGRPSGVPDRFSNSKSGNTATLTISSLQAEDEADYFCGSSDRTQYTGVFGSGTRLTVLG
modifications: S1F4 amino acid sequence
B4: S1B1: anti-tau clone, Table 2; SEQ ID NO: 412 (protein)
scFv: B3 scFv with A101T, L121V, I123V, V144L
modifications: S1B1 amino acid sequence
B5: ME12: sheep-derived anti-tau clone, CDRs in Table 1 (protein)
CDR 1: SNAVG
CDR 2: GCSSDGKCYHNSALKS
CDR 3: GFYSIYGYDYSGTIDY
CDR 4: SGSSSNVGGGNSVG
CDR 5: NTNSRPS
CDR 6: VTGDSSTHDDL
modifications: VHCDR1 ME12, NS3D9; VHCDR1 S1D2, S1H6, S2C3; VHCDR1 MC5, MD12; VHCDR1 3aA6, VHCDR1 CE3; VHCDR2 ME12; VHCDR3 ME12; VLCDR1 S1D12, ME12; VLCDR2 ME12; VLCDR3 ME12
B6: S2C6: anti-tau clone, Table 2; SEQ ID NO: 416 (protein)
scFv: QVQLQESGPSLVKPSQTLSLTCTVSGFSLISNSVGWVRQAPGKAPEWVAGIDTDGEEGYNPALKSQYAASDPDTSKSQVSLSLSSVTSEDTAVYYCGRTYRTDGFAYGYVQAIDYWGPGLLLTISSEGKSSGASGESKVDDQAVLTQPSSVSGSLGQRVSITCSGSFIGISSVGWFQQLPGSGLRTIIVASDGRPSGVPDRFSMSKSGNTATLTISSLQAEDEADYFCGSSDRTQYTGVFGSGTRLTVLG
modifications: S2C6 amino acid sequence
B7: 412E10: C-terminal anti-tau clone, Table 5; SEQ ID NO: 147 (protein)
chain: QVQLQESGPSLVKPSQTLSLTCTVSGFSVISDSVAWVRQAPGKVPEWLGASGSSGNKYYNPALKSRLSITRDTSKSQVSLSLSSVTTEDTAVYYCARGIIAGVDVWGRGLLVTVSSEGKSSGASGESKVDDQAVLTQPSSVSGSLGQRVSITCSGSSSNVGYGNYVGWYQQVPGSAPKLLIYGTAIRASGVPDRFSGSRSGDTATLTITSLQAEDEADYYCASYQSNYAFFGSGTRLTVLG
modifications: 412E10 amino acid sequence
B8: 412G11: C-terminal anti-tau clone, Table 5; SEQ ID NO: 434 (protein)
chain: QVRLQESGPSLVKPSQTLSLTCTVSGFSLTSYALGWVRQAPGRAPEWIGNIWRGGRIEYNPALKSRLSITRDTSKSQVSLSLSSVTTEDTAVYYCSRSGGDWGPGLLVTVSSEGKSSGASGESKVDDQAVLTQPSSVSGSLGQRVSITCSGSSSNVGYGNYVGWYQQVPGSAPKLLIYGATSRASGVPDRFSGSRSENTATLTISSLQAEDEADYYCASYDRSESVVFGSGTRLTVLG
modifications: 412G11 amino acid sequence
B9: 412E6: C-terminal anti-tau clone, Table 5; sequence in b349 (protein)
scAb: QVQLQESGPSLVKPSETLSLTCTVSGFSLTNYGVGWVRQAPGKALEWLGNIYSGGSTYYNPALKSRLSITRDTSKSQVSLSLNSVTLEDTAVYYCGRGGVGSVDVWGPGLLVTVSSEGKSSGASGESKVDDQAVLTQPPSVSGSPGQRVSITCSGGRNNIGRGTFVDWYQQLPGSGLKTVIYGTDRRPPGVPDRFSGSKTGNAATLTITSLQAEDEADYWCATYDYSNDMIILGSGTRLTVLG
B10: 412B9: C-terminal anti-tau clone, Table 5; SEQ ID NO: 417 (protein)
chain: QVQLQESGPSLVKPSQTLSLTCTVSGFSVISDSVAWVRQAPGKVPEWLGASGSSGNKYYNPALKSRLSITRDTSKSQVSLSLSSVTTEDTAVYYCARGIIAGVDVWGRGLLVSVSSEGKSSGASGESKVDDQAVLTQPSSVSGALGQRVSITCSGSSSNVGYGDYVGWYQQVPGSAPKLLIYGAASRASGVPDRFSGSRSGNTATLTISSLQAEDEADYYCASYDSSDGGVFGSGTRLTVLG
modifications: 412B9 amino acid sequence

Test system: hT40, dGA, dGAE and truncated tau fragments
Experiment: Binding ELISA / epitope mapping of anti-tau scAbs with truncated tau proteins and 13mer peptides
Design: species or system human
Details: ELISA, 'E' group scAbs
Description: A series of binding ELISA was performed using various truncated versions of the tau protein and 13mer peptide libraries spanning the entire hT40 molecule for mapping the epitopes of anti-tau scAbs (Full list of protein antigens used is given in Table 14). In general, ELISA plates were coated with 1 μg/ml hT40 or dGA or dGAE or other truncated versions of the protein and in the case of biotinylated peptides, plates were coated with 5 μg/ml Streptavidin followed by 1 μg/ml biotinylated peptide. The plates were blocked with 2% MPBS and scAb samples added at desired starting concentrations and double diluted across the plate. Binding was detected using anti-Human C Kappa HRP conjugated secondary antibody and the resulting immunoreaction was developed and absorbance values measured as described above.
Selected E specific scAbs and their specific binding to dGAE is shown below (FIG. 8A-E).
Similarly, dGA binding ‘NS’, ‘S’ and ‘M’ group scAbs were subjected to further antigen binding ELISA using shorter tau proteins and biotinylated 13mer peptides as shown below (FIG. 10A-F) and (FIG. 11A-R).

| cross-reactivity using hT40, dGA and dGAE antigens | Molecule |
| --- | --- |
| specific dGAE binding | B1 |

Same assay, conditions: Table 15; binding ELISA; residue numbers of hT40

| Tau proteins/fragments with positive scAb reactivity | Molecule |
| --- | --- |
| 297-391 (dGAE) | B1 |

Same assay, conditions: Table 16; NS, S and M clones; binding ELISA

| Molecule | Tau proteins/fragments with positive scAb reactivity |
| --- | --- |
| B2 | hT40, 297-390 (dGA), 297-391 (dGAE) |
| B3 | hT40, 297-390 (dGA), 297-391 (dGAE), 369-390, 369-391 |
| B4 | hT40, 297-390 (dGA), 297-391 (dGAE) |
| B5 | hT40, 297-390 (dGA), 297-391 (dGAE), 341-353, 337-349, 339-351 |
| B6 | hT40, 297-390 (dGA), 297-391 (dGAE), 369-390, 369-391 |

Same assay, conditions: Table 16; NS, S and M clones; incl. 13mer peptides

| Shortest region bound on hT40 | Molecule |
| --- | --- |
| 367-379 | B2 |
| 367-379 | B3 |
| 367-379 | B4 |
| 337-355 | B5 |
| 367-379 | B6 |

Same assay, conditions: Table 28 (LoD table); residues of hT40

| Detection scAb (Epitope) | Molecule |
| --- | --- |
| 412E10 (412-441) | B7 |

Same assay, conditions: residue numbers of SEQ ID NO: 1 (hT40); CDR Tables 1-11

| Epitope | Molecule |
| --- | --- |
| 412-441 | B8 |
| 412-441 | B9 |
| 367-379 | B2 |
| 367-379 | B3 |
| 367-379 | B4 |
| 337-355 | B5 |
| 412-441 | B7 |
| 367-379 | B6 |
| 412-441 | B10 |
